As usually defined, the Kd is the concentration at which binding is half-saturated. The low end stands for higher affinity, the high end for lower affinity. As usually defined, the koff is the first-order rate constant of dissociation. A low value points to slow dissociation. For orientation: kon means the rate constant with which the complex forms. A lower kon goes with slow association.

In one assay the target is T1, TtSlyDcas-Her3.
T1 chain: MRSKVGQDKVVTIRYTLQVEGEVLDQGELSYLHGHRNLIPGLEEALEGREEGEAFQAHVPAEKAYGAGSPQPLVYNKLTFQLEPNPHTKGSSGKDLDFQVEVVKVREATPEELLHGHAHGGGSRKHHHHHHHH
In words: ELISA, coated antigen. The procedure:
(§1) For the ELISA the screening an antigen down format was used. […] Hybridoma Supernatant was added to the plates and incubated for 1 h at room temperature. Bound antibody was detected with a HRP-labeled F(ab′)₂ goat anti-mouse Fcγ (Dianova) and ABTS (Roche) was used as a HRP-substrate.
(§2) As negative controls the scaffold proteins TtSlyDcas and TgSlyDΔIF were used.

Assay [1] concerns the target T2, human HER4 Extracellular Domain (ECD) (human, UniProt Q15303 26-651).
T2 construct: also called Her4 ECD; HER4-ECD
T2 sequence: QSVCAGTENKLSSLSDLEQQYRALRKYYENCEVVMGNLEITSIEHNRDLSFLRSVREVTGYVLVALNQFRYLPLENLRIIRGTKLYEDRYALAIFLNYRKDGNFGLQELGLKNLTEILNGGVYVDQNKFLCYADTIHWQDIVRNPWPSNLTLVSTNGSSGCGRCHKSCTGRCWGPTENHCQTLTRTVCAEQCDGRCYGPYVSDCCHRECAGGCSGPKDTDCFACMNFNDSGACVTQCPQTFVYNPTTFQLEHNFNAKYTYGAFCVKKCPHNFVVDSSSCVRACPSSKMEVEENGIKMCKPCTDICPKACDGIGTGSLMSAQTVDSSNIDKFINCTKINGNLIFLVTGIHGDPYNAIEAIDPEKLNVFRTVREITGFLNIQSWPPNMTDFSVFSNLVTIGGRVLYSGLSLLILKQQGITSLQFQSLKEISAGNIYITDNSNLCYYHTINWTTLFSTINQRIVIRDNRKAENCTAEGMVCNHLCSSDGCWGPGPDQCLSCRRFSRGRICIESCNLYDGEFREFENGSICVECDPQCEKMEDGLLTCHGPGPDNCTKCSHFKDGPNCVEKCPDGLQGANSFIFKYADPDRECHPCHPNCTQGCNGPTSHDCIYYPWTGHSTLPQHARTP
In words: ELISA, coated antigen. The procedure:
as §1, §2
Background: An ELISA detects its analyte on a solid surface through an enzyme-linked reagent.

The target of assay [2] is T3, TtSlyDcas.
T3 construct: scaffold without hairpin insert, negative control
T3 chain: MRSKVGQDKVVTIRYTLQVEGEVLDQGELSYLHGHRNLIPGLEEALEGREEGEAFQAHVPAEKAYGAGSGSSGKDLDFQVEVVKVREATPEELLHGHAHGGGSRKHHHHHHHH
In words: ELISA, coated antigen. The procedure:
as §1, §2

In assay [3] the target is T4, TgSlyDΔIF.
T4 construct: scaffold without hairpin insert, negative control
T4 chain: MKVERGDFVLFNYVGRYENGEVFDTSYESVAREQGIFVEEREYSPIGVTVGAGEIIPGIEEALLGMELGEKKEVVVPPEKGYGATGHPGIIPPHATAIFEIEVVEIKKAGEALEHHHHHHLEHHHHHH
In words: ELISA, coated antigen. The procedure:
as §1, §2

A further assay has as its target T5, TgSlyDser-Her3.
T5 chain: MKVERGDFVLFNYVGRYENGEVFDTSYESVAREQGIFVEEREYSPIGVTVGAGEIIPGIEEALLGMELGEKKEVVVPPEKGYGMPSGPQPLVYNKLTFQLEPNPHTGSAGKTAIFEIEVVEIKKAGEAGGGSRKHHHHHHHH
In words: ELISA, coated antigen. The procedure: as §1, §2

In a further assay the target is T6, TgSlyDcys-Her3.
T6 chain: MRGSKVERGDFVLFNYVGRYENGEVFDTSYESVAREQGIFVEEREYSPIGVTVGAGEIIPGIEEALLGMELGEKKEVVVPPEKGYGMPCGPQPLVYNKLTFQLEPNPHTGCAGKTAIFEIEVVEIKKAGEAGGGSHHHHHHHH
Description: ELISA, coated antigen. The procedure:
as §1, §2

Assay [4] addresses T7, human HER1 Extracellular Domain (ECD) (human, UniProt P00533 25-645).
T7 construct: also called Her1 ECD; HER1-ECD
In words: ELISA, coated antigen. The procedure: as §1, §2

Assay [5] addresses T8, human HER3 Extracellular Domain (ECD) (human, UniProt P21860 20-643).
T8 construct: human recombinant, 68 kDa; 'closed' conformation without ligand; also called Her3 ECD; Her-3 ECD
Description: ELISA, coated antigen. The procedure:
as §1, §2

For another assay, the target named is T9, TtSlyDcys-Her3.
T9 chain: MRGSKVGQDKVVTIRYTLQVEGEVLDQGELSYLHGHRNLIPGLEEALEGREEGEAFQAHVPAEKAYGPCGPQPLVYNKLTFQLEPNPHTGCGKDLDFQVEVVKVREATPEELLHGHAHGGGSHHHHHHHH
Description: ELISA, coated antigen. The procedure:
as §1, §2

The target in assay [6] is T10, human HER2 Extracellular Domain (ECD) (human, UniProt P04626 23-652).
T10 construct: human recombinant, 69.6 kDa; also called Her2 ECD; HER2_ECD
Description: ELISA, coated antigen. The procedure: as §1, §2

Assay [7] has as its target T3, TtSlyDcas. Description: ELISA, coated antigen 0.5 µg/ml, hybridoma supernatant. The procedure:
as §1

Assay [8] addresses T4, TgSlyDΔIF. The description is as above. The procedure:
as §1

The target in assay [9] is T11, human HER1 (full length, on cells) (human, UniProt P00533 25-1210).
T11 construct: HEK293 cells transfected with full length HER1, fixed and embedded (IHC); also called EGFR
In words: IHC (Ventana Benchmark XT) on formalin-fixed, paraffin-embedded HEK293 cells transiently transfected with full length HER1. The procedure:
(§3) All selected clones were tested for reactivity and specificity in IHC. […] After an additional fixation in formalin overnight the Agarose blocks were embedded in paraffin. Untransfected HEK293 cells were used as negative controls and treated accordingly to the transfected cells. After paraffin embedding 3 μm thin sections were prepared using a microtome. The sections were mounted on glass microscopy slides and dried for 2 h. All further steps of the immunohistochemical staining procedure were carried out using a Ventana Benchmark XT. The slides were dewaxed and antigen retrieval was performed by applying heat for 1 hour. For antigen retrieval the Ventana buffer CC1 was used. The antibodies were used at a concentration of 1 μg/ml. For the detection of bound antibody the Ventana UltraView detection kit was used.

The target of assay [10] is T7, human HER1 Extracellular Domain (ECD). In words: ELISA, coated antigen, hybridoma supernatant. The procedure:
as §1

The target of assay [11] is T10, human HER2 Extracellular Domain (ECD). Description: ELISA, coated antigen, hybridoma supernatant. The procedure: as §1
Assay [12] addresses T12, human HER2 (full length, on cells) (human, UniProt P04626 23-1255).
T12 construct: HEK293 cells transfected with full length HER2 (IHC); MCF-7 cells (co-immunoprecipitation)
Description: IHC (Ventana Benchmark XT) on formalin-fixed, paraffin-embedded HEK293 cells transiently transfected with full length HER2. The procedure:
as §3

Assay [13] addresses T13, HER3 ECD-HRG complex (human, UniProt P21860 20-643).
T13 construct: HER3 ECD preincubated with a 3- to 6-fold molar excess of Heregulin ('open' conformation); biotinylated Her3-ECD in the ribosome display; also called HER3-ECD/HRG1β
Description: SPR Biacore 3000, antibody captured via anti-human Fc, 25 C. The procedure:
(§4) A CM5 series sensor was mounted into the system and was normalized in HBS-ET buffer (10 mM HEPES pH 7.4, 150 mM NaCl, 3 mM EDTA, 0.005% w/v Tween 20) according to the manufacturer's instructions. The sample buffer was the system buffer supplemented with 1 mg/ml CMD (Carboxymethyldextran, Sigma #86524). The system operated at 25° C. 10000 RU monoclonal murine anti-human Fc antibody (MAK<h-Fc> M-R10Z8 E9, Roche Diagnostics GmbH, Penzberg, Germany) were immobilized using EDC/NHS chemistry on all four flow cells. The sensor was deactivated using 1M ethanolamine.
In general terms: In SPR one partner is held on a chip, and binding of the other changes the refractive index at the surface.

Assay [14] addresses T13, HER3 ECD-HRG complex. In words: SPR Biacore 3000, sequential injection: HER3-ECD/HRG1β first, then HER2-ECD, 270 nM each. The procedure:
as §4
(§5) The association and dissociation rates were monitored for 10 minutes and 8 minutes, respectively.

The target of assay [15] is T13, HER3 ECD-HRG complex. In words: SPR Biacore 3000, sequential injection: HER2-ECD first, then HER3-ECD/HRG1β, 270 nM each. The procedure: as §4, §5

B1: M-15-02 (antibody, V domains shown)
VH: QVQLQQSGAELAKPGASVKMSCKTSGYTLTDYWIHWVKQRPGQGLEWIGYINPYTGYTESNQKFKDKATLTADKSSNTAYIQLSSLTSEDSAVYYCARPYYYGDYWGQGTTLTVSS
VL: QIVLTQSPAIMSASPGERVTITCSASSSVSYMHWFQQKPGTSPKLLIYSTSNLASGVPARFSGSGSGTSYSLTISRMEAEDAATYYCQQRSSYPFTFGSGTKLEIK
notes: murine hybridoma clone
B1: the ELISA signal stood at 1.76 in the assay with TtSlyDcas-Her3; 3.19 in assay [1]; 0.04 with TtSlyDcas [2]; 0.04 with TgSlyDΔIF [3]; 1.98 in the assay with TgSlyDser-Her3; 1.78 in the assay with TgSlyDcys-Her3. Besides, the ELISA signal in [4] is 0.024; in assay [5], 3.15; with TtSlyDcys-Her3, 1.52; in assay [6], 0.025. The binding result is listed as “no binding” with TtSlyDcas [7]; “no binding” with TgSlyDΔIF [8]; “no binding (tested: 1 µg/ml)” in assay [9]; “no binding” in assay [10]; “no binding” in [11]; “no binding (tested: 1 µg/ml)” in assay [12].

B2: DIB-MoAb (monovalent antibody based on M-05-74) (antibody, V domains shown)
VH: B1 VH
VL: B1 VL
notes: also called DIB-74 in the monovalent MoAb format; monovalent M-05-74
For the molecule B2, in the assay with HER3 ECD-HRG complex [13], the Kd came to 2.1 nM, the “MR (Molar Ratio)” value is 0.6, the off-rate constant (koff) was found to be 0.00023 s⁻¹ and the on-rate (kon) was found to be 110000 M⁻¹ s⁻¹. In the assay with HER3 ECD-HRG complex [13], the t1/2-diss was determined as 51 min.

B3: M-15-04 (antibody, V domains shown)
VH: B1 VH
VL: B1 VL
notes: murine hybridoma clone
Regarding B3, the ELISA signal with TtSlyDcas-Her3 was 1.85; in assay [1], 3.19; in the assay with TtSlyDcas [2], 0.04; with TgSlyDΔIF [3], 0.033; with TgSlyDser-Her3 it was 1.83; with TgSlyDcys-Her3 it was 1.5. The ELISA signal in [4] is 0.067; in assay [5], 3.17; with TtSlyDcys-Her3, 1.46; in assay [6], 0.064. The binding result in the assay with TtSlyDcas [7] was “no binding”; with TgSlyDΔIF [8], “no binding”; in [9], “no binding (tested: 1 µg/ml)”; in assay [10], “no binding”; in assay [11], “no binding”; in assay [12], “no binding (tested: 1 µg/ml)”.

B4: bispecific HER3/HER2 antibody DIBxPERT (bispecific antibody, human IgG1, kappa)
heavy 1: not shown
light 1: DIQMTQSPSSLSASVGDRVTITCKASQDVSIGVAWYQQKPGKAPKLLIYSASYRYTGVPSRFSGSGSGTDFTLTISSLQPEDFATYYCQQYYIYPYTFGQGTKVEIKSSASTKGPSVFPLAPSSKSTSGGTAALGCLVKDYFPEPVTVSWNSGALTSGVHTFPAVLQSSGLYSLSSVVTVPSSSLGTQTYICNVNHKPSNTKVDKKVEPKSC
heavy 2: not shown
light 2: QIVLTQSPAIMSASPGERVTITCSASSSVSYMHWFQQKPGTSPKLLIYSTSNLASGVPARFSGSGSGTSYSLTISRMEAEDAATYYCQQRSSYPFTFGSGTKLEIKRTVAAPSVFIFPPSDEQLKSGTASVVCLLNNFYPREAKVQWKVDNALQSGNSQESVTEQDSKDSTYSLSSTLTLSKADYEKHKVYACEVTHQGLSSPVTKSFNRGEC
notes: also called DIBxPERT CrossMab
On to B4, for which the “MR (molar ratio), first injection” value in the assay with HER3 ECD-HRG complex [14] was 0.8. Also, the “MR (molar ratio), second injection” value with HER3 ECD-HRG complex [15] was 0.7. In the assay with HER3 ECD-HRG complex [13], the Kd is 3.9 nM, the “MR (Molar Ratio)” value worked out at 0.5, the koff worked out at 0.00033 s⁻¹ and the association rate constant (kon) was found to be 84000 M⁻¹ s⁻¹. In addition, the t1/2-diss with HER3 ECD-HRG complex [13] amounted to 35 min.

The values above are taken from US20170233490A1 (Hoffmann-La Roche, published 2017).
